According to the FLAb antibody collection (doi:10.7554/elife.23156):

B1: scFv; the commonest letter at each place (parent)
chain 1: EVKLDETGGGLVQPGRPMKLSCVASGFTFSDYWMNWVRQSPEKGLEWVAQIRNKPYNYETYYSDSVKGRFTISRDDSKSSVYLQMNNLRVEDMGIYYCTGSYYGMDYWGQGTSVTVS
chain 2: DVVMTQTPLSLPVSLGDQASISCRSSQSLVHSNGNTYLRWYLQKPGQSPKVLIYKVSNRFSGVPDRFSGSGSGTDFTLKISRVEAEDLGVYFCSQSTHVPWTFGGGTKLEIK

How the values were obtained:
[1] = variants of: B1; assay: Kd (Tite-Seq); details: with fluorescein; format: scFv 4-4-20, heavy + light
[2] = variants of: B1; assay: yeast surface expression (ratio to wild type); higher = more expressed; details: format: scFv 4-4-20, heavy + light

| Kd [1] | Variant | yeast surface expression [2] |
| --- | --- | --- |
| ≥ 10000 nM | chain 1 Y103G G109T | 0.68 |
| ≥ 10000 nM | chain 1 Y103I G109V | 0.222 |
| 5960 nM | chain 1 Y102W M105E | 1.02 |
| 4.93 nM | chain 1 Y103R M105K | 0.768 |
| ≥ 10000 nM | chain 1 Y102V M105H G109V | 0.276 |
| ≥ 10000 nM | chain 1 Y103I D106L | 0.354 |
| ≥ 10000 nM | chain 1 Y103I D106W | 0.188 |
| ≥ 10000 nM | chain 1 Y103I D106Q | 0.516 |
| ≥ 10000 nM | chain 1 Y103I D106A | 0.489 |
| ≥ 10000 nM | chain 1 Y103V G109L | 0.247 |
| ≥ 10000 nM | chain 1 Y103M D106G | 0.479 |
| 176 nM | chain 1 Y103S M105R | 0.819 |
| 2.15 nM | chain 1 Y102V D106N | 0.889 |
| ≥ 10000 nM | chain 1 Y102V D106I | 0.421 |
| ≥ 10000 nM | chain 1 Y103K G104I | 0.711 |
| ≥ 10000 nM | chain 1 Y103L W108D | 0.501 |
| 1.1 nM | chain 1 Y103V W108Y | 0.619 |
| 110 nM | chain 1 Y103A Y107T | 1.13 |
| ≥ 10000 nM | chain 1 Y103W D106K | 0.245 |
| ≥ 10000 nM | chain 1 Y103W D106T | 0.875 |
| ≥ 10000 nM | chain 1 Y103Q D106M | 0.805 |
| ≥ 10000 nM | chain 1 Y103L D106H G109F | 0.0981 |
| ≤ 0.316 nM | chain 1 Y102S W108T | 0.599 |

| Kd [1] | Variant | yeast surface expression [2] |
| --- | --- | --- |
| ≥ 10000 nM | chain 1 Y102V Y103C | 0.798 |
| ≥ 10000 nM | chain 1 Y103H W108R | 0.35 |
| 20 nM | chain 1 Y103C M105L | 0.641 |
| 6270 nM | chain 1 Y103C M105I | 0.621 |
| ≥ 10000 nM | chain 1 Y103C M105G | 0.611 |
| 31.8 nM | chain 1 Y103S | 1.05 |
| 2350 nM | chain 1 Y103T | 0.896 |
| 44.5 nM | chain 1 Y103D | 1.21 |
| 3.01 nM | chain 1 Y103K | 1.04 |
| 7.08 nM | chain 1 Y103L | 1.08 |
| 0.763 nM | chain 1 Y103F | 1.06 |
| 7.08 nM | chain 1 Y103N | 1.17 |
| 1.5 nM | chain 1 Y103M | 1.27 |
| 15.8 nM | chain 1 Y103V | 0.701 |
| 16.6 nM | chain 1 Y103E | 0.857 |
| 4.44 nM | chain 1 Y103R | 0.971 |
| 228 nM | chain 1 Y103W | 0.862 |
| 4.93 nM | chain 1 Y103C | 0.775 |
| 19.9 nM | chain 1 Y103Q | 1.33 |
| 15 nM | chain 1 Y103A | 0.932 |
| 13.2 nM | chain 1 Y103H | 1.1 |
| ≥ 10000 nM | chain 1 Y103P | 0.791 |
| 18 nM | chain 1 Y103I | 0.964 |

| Kd [1] | Variant | yeast surface expression [2] |
| --- | --- | --- |
| 17.1 nM | chain 1 Y103G | 1.14 |
| ≥ 10000 nM | chain 1 Y103P W108Y | 0.364 |
| ≥ 10000 nM | chain 1 Y103P W108M | 0.463 |
| 9.66 nM | chain 1 Y103W Y107W | 0.724 |
| ≥ 10000 nM | chain 1 Y107D G109R | 0.366 |
| 0.504 nM | chain 1 Y102V W108Y | 0.855 |
| ≥ 10000 nM | chain 1 Y102V W108G | 0.298 |
| 21 nM | chain 1 Y102V W108A | 0.315 |
| ≥ 10000 nM | chain 1 Y103A G104A | 0.911 |
| 0.333 nM | chain 1 Y103M W108M | 1.13 |
| 89.6 nM | chain 1 Y103M W108Q | 0.547 |
| 7.46 nM | chain 1 Y103M W108A | 0.484 |
| 2.04 nM | chain 1 Y103M Y107W | 0.871 |
| ≥ 10000 nM | chain 1 Y103M G109Y | 0.265 |
| ≥ 10000 nM | chain 1 Y103M G109W | 0.221 |
| ≥ 10000 nM | chain 1 Y103E W108D | 0.473 |
| ≥ 10000 nM | chain 1 Y103E W108N | 0.446 |
| 22.1 nM | chain 1 Y103E W108C | 0.758 |
| ≥ 10000 nM | chain 1 Y103E W108R | 0.463 |
| 4 nM | chain 1 Y103E W108I | 1.12 |
| 17.1 nM | chain 1 Y103E W108T | 1.01 |
| 17.1 nM | chain 1 Y103F W108K | 0.318 |
| 6.72 nM | chain 1 Y103F W108Q | 0.382 |

| Kd [1] | Variant | yeast surface expression [2] |
| --- | --- | --- |
| ≤ 0.316 nM | chain 1 Y103F W108I | 0.885 |
| ≥ 10000 nM | chain 1 Y103K G109W | 0.123 |
| ≥ 10000 nM | chain 1 Y107D W108C | 0.269 |
| ≥ 10000 nM | chain 1 Y107D W108Q | 0.706 |
| ≥ 10000 nM | chain 1 Y107D W108N | 0.477 |
| ≥ 10000 nM | chain 1 Y103E M105I | 0.9 |
| ≥ 10000 nM | chain 1 Y103V D106H | 0.384 |
| ≥ 10000 nM | chain 1 Y103L G109M | 0.208 |
| ≥ 10000 nM | chain 1 Y103L G109I | 0.206 |
| 167 nM | chain 1 Y103L G109S | 0.855 |
| 4.68 nM | chain 1 Y107C W108V | 0.304 |
| ≥ 10000 nM | chain 1 Y103P Y107E | 0.763 |
| ≥ 10000 nM | chain 1 Y103P Y107D | 0.617 |
| ≥ 10000 nM | chain 1 Y102T D106P | 0.351 |
| ≥ 10000 nM | chain 1 Y107E W108K | 0.513 |
| ≥ 10000 nM | chain 1 Y107E W108E | 0.485 |
| ≥ 10000 nM | chain 1 Y107A W108A | 0.351 |
| ≥ 10000 nM | chain 1 Y102V G104N | 0.817 |
| ≥ 10000 nM | chain 1 Y102V G104K | 0.494 |
| ≥ 10000 nM | chain 1 Y102W G104H G109I | 0.0981 |
| 1.66 nM | chain 1 Y103W W108L | 0.629 |
| ≥ 10000 nM | chain 1 Y103W W108S | 0.526 |
| 1.94 nM | chain 1 Y103G W108F | 1.06 |

| Kd [1] | Variant | yeast surface expression [2] |
| --- | --- | --- |
| ≥ 10000 nM | chain 1 Y103D W108R | 0.524 |
| 3740 nM | chain 1 Y103D W108H | 0.708 |
| ≥ 10000 nM | chain 1 Y103V Y107V | 0.603 |
| ≥ 10000 nM | chain 1 Y103V Y107M | 0.53 |
| ≥ 10000 nM | chain 1 Y103N M105G Y107M | 0.836 |
| ≥ 10000 nM | chain 1 Y103P M105K | 0.785 |
| ≥ 10000 nM | chain 1 Y103I G104M | 0.368 |
| ≥ 10000 nM | chain 1 Y103A D106I W108P | 0.344 |
| 7.85 nM | chain 1 Y102T Y103W | 0.819 |
| ≥ 10000 nM | chain 1 Y102T Y103R | 1.21 |
| 24.5 nM | chain 1 Y102T Y103C | 0.784 |
| ≥ 10000 nM | chain 1 Y103Q G104N | 0.905 |
| 5.46 nM | chain 1 Y103R Y107F | 0.936 |
| ≥ 10000 nM | chain 1 Y103F G109F | 0.237 |
| 1720 nM | chain 1 Y107E | 0.803 |
| 1.7 nM | chain 1 Y107F | 0.928 |
| 7330 nM | chain 1 Y107A | 1 |
| ≥ 10000 nM | chain 1 Y107C | 0.592 |
| 7720 nM | chain 1 Y107D | 0.779 |
| ≥ 10000 nM | chain 1 Y102W G109P | 0.245 |
| ≥ 10000 nM | chain 1 Y102W G109V | 0.19 |
| ≥ 10000 nM | chain 1 Y103R G109V | 0.47 |
| ≥ 10000 nM | chain 1 Y103R G109I | 0.291 |
